The Human Domainome abundance scans (Beltran et al. 2025)
± gives the uncertainty stated by the source.

B1: Poly(rC)-binding protein 1, residues 278 to 350; numbered along this chain, Q15365 (parent)
chain: TQTTHELTIPNNLIGCIIGRQGANINEIRQMSGAQIKIANPVEGSSGRQVTITGSAASISLAQYLINARLSSE

Variants of: B1
Test: abundance fitness (aPCA) (normalised: wild type 0, dead -1); higher = more abundant; growth selection in yeast, the domain comes from the species named
Details: Homo sapiens

Compared with E6P, E6R is higher in abundance fitness: -0.965 ± 0.37 for the first, 0.164 ± 0.04 for the second.

E6N and E6H are within error of each other in abundance fitness: 0.161 ± 0.08 for the first, 0.232 ± 0.11 for the second.

First: E6V
Second: E6T
The abundance fitness of the first is lower: 0.135 ± 0.044 for the first, 0.294 ± 0.074 for the second.

Going from E6M to E6W, the abundance fitness falls from 0.07 ± 0.067 to -0.102 ± 0.051.

E6C and E6I are within error of each other in abundance fitness: 0.168 ± 0.061 for the first, 0.116 ± 0.18 for the second.

E6Q and E6K are within error of each other in abundance fitness: 0.156 ± 0.077 for the first, 0.113 ± 0.068 for the second.

E6A and E6S are within error of each other in abundance fitness: 0.002 ± 0.043 for the first, 0.08 ± 0.055 for the second.

Going from E6F to E6Y, the abundance fitness rises from -0.088 ± 0.14 to 0.218 ± 0.087.

Compared with H5G, H5D is lower in abundance fitness: -0.081 ± 0.038 for the first, -0.323 ± 0.073 for the second.

H5V and H5M are within error of each other in abundance fitness: 0.217 ± 0.042 for the first, 0.136 ± 0.057 for the second.

Compared with H5P, H5W is higher in abundance fitness: -0.699 ± 0.19 for the first, 0.091 ± 0.048 for the second.

H5C and H5T are within error of each other in abundance fitness: 0.104 ± 0.084 for the first, 0.066 ± 0.085 for the second.

H5S and H5I are within error of each other in abundance fitness: 0.091 ± 0.056 for the first, 0.113 ± 0.091 for the second.

Compared with H5K, H5Q is higher in abundance fitness: 0.107 ± 0.069 for the first, 0.253 ± 0.059 for the second.

Going from H5R to H5E, the abundance fitness falls from 0.091 ± 0.041 to -0.073 ± 0.061.

H5Y and H5F are within error of each other in abundance fitness: -0.083 ± 0.11 for the first, -0.32 ± 0.2 for the second.

Compared with H5A, H5N is lower in abundance fitness: 0.139 ± 0.043 for the first, -0.173 ± 0.088 for the second.

I9G and I9N are within error of each other in abundance fitness: -0.771 ± 0.07 for the first, -0.805 ± 0.21 for the second.

Going from I9R to I9H, the abundance fitness rises from -0.732 ± 0.066 to -0.039 ± 0.34.

I9D and I9Y are within error of each other in abundance fitness: -0.714 ± 0.17 for the first, -0.567 ± 0.17 for the second.

Going from I9L to I9W, the abundance fitness falls from -0.072 ± 0.041 to -0.847 ± 0.12.

Going from I9T to I9V, the abundance fitness rises from -0.79 ± 0.13 to 0.076 ± 0.038.

I9S and I9A are within error of each other in abundance fitness: -0.885 ± 0.14 for the first, -0.688 ± 0.081 for the second.

I9P and I9Q are within error of each other in abundance fitness: -0.835 ± 0.13 for the first, -0.767 ± 0.12 for the second.

Compared with I9F, I9E is lower in abundance fitness: 0.066 ± 0.14 for the first, -0.942 ± 0.14 for the second.

Going from I9M to I9C, the abundance fitness falls from -0.356 ± 0.073 to -0.839 ± 0.15.

T8N and T8L are within error of each other in abundance fitness: 0.081 ± 0.13 for the first, -0.032 ± 0.052 for the second.

Going from T8G to T8Q, the abundance fitness rises from -0.559 ± 0.049 to -0.076 ± 0.094.

T8K and T8W are within error of each other in abundance fitness: -0.128 ± 0.11 for the first, -0.064 ± 0.049 for the second.

T8E and T8M are within error of each other in abundance fitness: 0.069 ± 0.052 for the first, 0.028 ± 0.085 for the second.

First: T8V
Second: T8A
The abundance fitness of the first is higher: 0.207 ± 0.042 for the first, -0.124 ± 0.053 for the second.

T8D and T8I are within error of each other in abundance fitness: 0.144 ± 0.097 for the first, -0.008 ± 0.14 for the second.

Compared with T8C, T8S is lower in abundance fitness: 0.098 ± 0.078 for the first, -0.074 ± 0.066 for the second.

T8H and T8R are within error of each other in abundance fitness: 0.017 ± 0.13 for the first, -0.028 ± 0.036 for the second.

Compared with T8Y, L7Y is lower in abundance fitness: 0.05 ± 0.11 for the first, -0.436 ± 0.13 for the second.

L7E and L7R are within error of each other in abundance fitness: -0.331 ± 0.085 for the first, -0.354 ± 0.051 for the second.

Going from L7A to L7C, the abundance fitness rises from -0.504 ± 0.073 to -0.208 ± 0.081.

Going from L7I to L7Q, the abundance fitness falls from -0.013 ± 0.12 to -0.382 ± 0.096.

Going from L7M to L7D, the abundance fitness falls from 0.113 ± 0.055 to -0.616 ± 0.15.

L7N and L7S are within error of each other in abundance fitness: -0.803 ± 0.39 for the first, -0.468 ± 0.072 for the second.

L7K and L7H are within error of each other in abundance fitness: -0.53 ± 0.18 for the first, -0.744 ± 0.2 for the second.

Compared with L7V, L7G is lower in abundance fitness: -0.043 ± 0.048 for the first, -0.517 ± 0.059 for the second.

Going from L7P to L7W, the abundance fitness rises from -1.03 ± 0.34 to -0.274 ± 0.053.

Compared with L7F, L7T is lower in abundance fitness: -0.051 ± 0.087 for the first, -0.447 ± 0.079 for the second.

N12C and N12A are within error of each other in abundance fitness: -0.267 ± 0.12 for the first, -0.148 ± 0.049 for the second.

Going from N12E to N12H, the abundance fitness rises from -0.202 ± 0.067 to -0.009 ± 0.1.

N12G and N12D are within error of each other in abundance fitness: -0.282 ± 0.045 for the first, -0.272 ± 0.11 for the second.

N12F and T3P are within error of each other in abundance fitness: -0.459 ± 0.23 for the first, -0.16 ± 0.078 for the second.

Going from T3Y to T3Q, the abundance fitness rises from -0.221 ± 0.17 to 0.11 ± 0.051.

Going from T3S to T3E, the abundance fitness rises from 0.119 ± 0.046 to 0.285 ± 0.052.

Going from T3V to T3K, the abundance fitness rises from 0.023 ± 0.045 to 0.257 ± 0.073.

T3M and T3L are within error of each other in abundance fitness: 0.161 ± 0.068 for the first, 0.079 ± 0.047 for the second.

T3N and T3C are within error of each other in abundance fitness: 0.113 ± 0.095 for the first, -0.009 ± 0.09 for the second.

Compared with T3H, T3I is lower in abundance fitness: 0.147 ± 0.1 for the first, -0.345 ± 0.21 for the second.

T3R and T3G are within error of each other in abundance fitness: 0.119 ± 0.035 for the first, 0.167 ± 0.033 for the second.

T3D and T3A are within error of each other in abundance fitness: 0.053 ± 0.091 for the first, 0.048 ± 0.05 for the second.

Compared with T4L, T4V is higher in abundance fitness: -0.217 ± 0.055 for the first, -0.088 ± 0.046 for the second.

Going from T4Y to T4W, the abundance fitness falls from 0.013 ± 0.1 to -0.31 ± 0.063.

Compared with T4E, T4S is higher in abundance fitness: -0.113 ± 0.066 for the first, 0.008 ± 0.053 for the second.

T4I and T4N are within error of each other in abundance fitness: -0.292 ± 0.15 for the first, -0.138 ± 0.17 for the second.

T4A and T4F are within error of each other in abundance fitness: -0.109 ± 0.053 for the first, -0.182 ± 0.14 for the second.

For T4R, the abundance fitness was -0.155 ± 0.041.
